Test system: non-sulphated CCK-8 (Asp-Tyr-Met-Gly-Trp-Met-Asp-Phe-NH2)

Sequence of membrane-bound tripeptidylpeptidase II purified from rat brain (cerebral cortex) membranes (chain, as listed by the source): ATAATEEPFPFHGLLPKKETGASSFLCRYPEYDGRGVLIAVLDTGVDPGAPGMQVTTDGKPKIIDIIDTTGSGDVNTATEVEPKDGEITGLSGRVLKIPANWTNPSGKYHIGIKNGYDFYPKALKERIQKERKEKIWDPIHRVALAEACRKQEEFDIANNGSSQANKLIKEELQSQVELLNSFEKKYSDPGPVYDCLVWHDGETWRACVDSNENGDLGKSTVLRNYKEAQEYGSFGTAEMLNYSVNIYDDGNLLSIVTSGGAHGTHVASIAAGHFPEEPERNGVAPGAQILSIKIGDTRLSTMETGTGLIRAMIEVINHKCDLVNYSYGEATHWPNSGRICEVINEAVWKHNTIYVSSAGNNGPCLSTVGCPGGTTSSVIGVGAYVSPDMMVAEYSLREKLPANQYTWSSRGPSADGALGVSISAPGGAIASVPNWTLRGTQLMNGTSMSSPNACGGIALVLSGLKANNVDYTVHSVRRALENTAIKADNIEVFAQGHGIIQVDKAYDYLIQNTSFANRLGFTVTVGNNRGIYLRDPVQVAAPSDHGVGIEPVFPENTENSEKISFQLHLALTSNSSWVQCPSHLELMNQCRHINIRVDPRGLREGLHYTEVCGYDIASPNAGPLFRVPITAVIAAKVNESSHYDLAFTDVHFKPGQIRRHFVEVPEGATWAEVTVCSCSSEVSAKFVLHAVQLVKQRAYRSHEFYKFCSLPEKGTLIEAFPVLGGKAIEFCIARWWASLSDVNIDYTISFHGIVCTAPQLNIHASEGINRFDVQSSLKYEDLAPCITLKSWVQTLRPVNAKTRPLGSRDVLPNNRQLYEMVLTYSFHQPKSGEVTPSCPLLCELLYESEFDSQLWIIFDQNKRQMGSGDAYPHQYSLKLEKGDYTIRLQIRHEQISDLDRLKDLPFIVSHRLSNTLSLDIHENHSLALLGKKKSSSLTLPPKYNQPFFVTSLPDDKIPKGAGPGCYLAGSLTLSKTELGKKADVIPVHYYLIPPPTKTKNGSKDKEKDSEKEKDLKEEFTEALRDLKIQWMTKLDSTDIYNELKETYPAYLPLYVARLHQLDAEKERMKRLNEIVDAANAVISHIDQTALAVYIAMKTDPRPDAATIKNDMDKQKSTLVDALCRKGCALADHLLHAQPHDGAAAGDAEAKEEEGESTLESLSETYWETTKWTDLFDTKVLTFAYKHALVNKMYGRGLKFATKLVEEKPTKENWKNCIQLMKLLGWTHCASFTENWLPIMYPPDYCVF

Substance: membrane-bound tripeptidylpeptidase II purified from rat brain (cerebral cortex) membranes
- hydrolysis of CCK-8 (products CCK-5 and Gly-Trp-Met measured fluorimetrically after HPLC): only one enzyme is responsible for the two cleavages of the molecule CCK-8

From US6403561
